The record followed here is paper PMC3623634 (Molecular Biology of the Cell, 2013).

For assay [1], the target named is T1, GST-Alp7 (full-length Alp7/TACC fused to GST) (fission yeast, UniProt Q9URY2 1-474).
T1 sequence (looked up): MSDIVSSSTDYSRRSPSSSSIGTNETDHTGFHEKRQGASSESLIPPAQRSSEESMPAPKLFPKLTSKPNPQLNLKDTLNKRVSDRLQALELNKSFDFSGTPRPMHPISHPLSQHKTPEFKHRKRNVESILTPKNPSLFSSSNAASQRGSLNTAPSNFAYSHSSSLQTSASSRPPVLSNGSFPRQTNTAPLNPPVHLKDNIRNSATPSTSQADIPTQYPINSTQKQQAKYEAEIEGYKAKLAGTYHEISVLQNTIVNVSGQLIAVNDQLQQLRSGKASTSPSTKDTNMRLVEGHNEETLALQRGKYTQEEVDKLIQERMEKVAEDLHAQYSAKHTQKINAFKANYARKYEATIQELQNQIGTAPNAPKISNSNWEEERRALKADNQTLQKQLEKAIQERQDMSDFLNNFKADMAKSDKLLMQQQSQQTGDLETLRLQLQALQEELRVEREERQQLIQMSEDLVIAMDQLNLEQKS
The experiment in a line: peptide or protein array.

In assay [2] the target is T2, GST-Alp7C (C-terminal half of Alp7, TACC domain, residues 219-474) (fission yeast, UniProt Q9URY2 219-474).
T2 sequence (looked up): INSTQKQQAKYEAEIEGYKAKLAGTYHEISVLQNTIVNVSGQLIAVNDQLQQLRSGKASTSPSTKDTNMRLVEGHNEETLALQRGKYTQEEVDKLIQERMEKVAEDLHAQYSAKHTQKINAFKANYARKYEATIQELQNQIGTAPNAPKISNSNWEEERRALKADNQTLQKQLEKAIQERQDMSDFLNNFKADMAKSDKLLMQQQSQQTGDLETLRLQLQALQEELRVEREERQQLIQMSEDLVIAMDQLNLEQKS
Put plainly: peptide or protein array.

B1: Ndc80 loop peptide (411-424) with F420 replaced by isoleucine (peptide, UniProt Q10198 411-424, looked up)
peptide: DSLEKKVQKINSLA
In the case of B1, the binding result in assay [1] and in assay [2] was “binds” in each case.

B2: Ndc80 loop peptide (411-424) with F420 replaced by leucine (peptide, UniProt Q10198 411-424, looked up)
peptide: DSLEKKVQKLNSLA
Turning to B2, the binding result in assay [1] and in assay [2] was “binds” throughout.
